Publication PMC12098740

Assays:
[1] = target: Cinpanemab (BIIB-054); assay: SPR
[2] = target: α-syn aggregates of MSA patient brain (Homo sapiens (Human).) (UniProt P37840); assay: ELISA
[3] = target: α-syn aggregates of PD patient brain (Homo sapiens (Human).) (UniProt P37840); assay: ELISA
[4] = target: Full length, human α-synuclein, recombinant monomer (Homo sapiens (Human).) (UniProt P37840); assay: microfluidic diffusional sizing
[5] = target: human α-syn oligomers (ND Biosciences) (Homo sapiens (Human).) (UniProt P37840); assay: microfluidic diffusional sizing

| Kd [1] [nM] | EC50 [2] [nM] | EC50 [3] [nM] | Kd [4] [nM] | Kd [5] [nM] | Substance |
| --- | --- | --- | --- | --- | --- |
| > 100 |  |  |  |  | Full length, human α-synuclein, recombinant monomer (from UniProt P37840 1-140) (natural protein) |
|  | 0.09 | 0.16 | 12 | 0.3 | Lu AF82422 (amlenetug), monospecific wild type human IgG1 (antibody) |
